Experimental findings from paper PMC6396125 (ACS Omega, 2019) are described below.

Assay [1] deals with T1, L. lactis OppA (Lactococcus lactis subsp. lactis, UniProt Q07741).
T1 sequence (Q07741 35-600 limits assumed): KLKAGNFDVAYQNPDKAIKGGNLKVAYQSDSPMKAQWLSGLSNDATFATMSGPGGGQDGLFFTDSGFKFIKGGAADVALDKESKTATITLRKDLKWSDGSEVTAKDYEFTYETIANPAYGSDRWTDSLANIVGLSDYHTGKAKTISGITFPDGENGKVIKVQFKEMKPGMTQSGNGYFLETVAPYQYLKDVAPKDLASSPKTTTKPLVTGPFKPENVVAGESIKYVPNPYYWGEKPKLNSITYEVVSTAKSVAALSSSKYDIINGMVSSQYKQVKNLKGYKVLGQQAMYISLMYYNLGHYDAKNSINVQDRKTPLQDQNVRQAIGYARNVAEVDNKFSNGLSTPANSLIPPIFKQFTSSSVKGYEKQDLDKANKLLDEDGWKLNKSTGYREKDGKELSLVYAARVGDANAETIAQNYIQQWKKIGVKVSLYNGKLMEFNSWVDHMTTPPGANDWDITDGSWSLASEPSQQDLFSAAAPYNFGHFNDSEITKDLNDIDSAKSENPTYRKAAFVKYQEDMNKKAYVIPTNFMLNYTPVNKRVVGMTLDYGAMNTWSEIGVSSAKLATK
Kind of assay: Fluorescence anisotropy competition binding assay. A general note: Polarisation of emitted light reports the rotation of a fluorescent probe.

The target of assay [2] is Lactococcus lactis oligopeptide-binding protein A (OppA) (Lactococcus lactis subspecies cremoris MG1363). Kind of assay: fluorescence polarisation.
For assay [3], the target named is bradykinin labeled with sulforhodamine 101 on the C-terminus. Kind of assay: fluorescence polarisation.
Assay [4] addresses Lactococcus lactis oligopeptide-binding protein A (OppA) (Lactococcus lactis subspecies cremoris MG1363). Kind of assay: fluorescence polarisation. This is another data set of the same source.
Assay [5] shares this target. Kind of assay: fluorescence polarisation. This is another data set of the same source.
For assay [6] the target is unchanged. Kind of assay: fluorescence polarisation. The source holds these as a separate data set.

Where “and” joins values, the source holds several entries; their conditions need not be identical. Equal entries are not always repeated. Where two headings read alike, the source gives them in different places. Ends that are not written are not given here.

A word on the Kd: it is a measure of binding affinity in units of concentration. A high value points to weaker binding. One may read the IC50 as the point on the concentration scale where inhibition reaches its midpoint. A lower IC50 goes with greater potency in that assay.

In the case of SLSQSKVLPVPQ [casein-derived peptide], in assay [1], the dissociation constant Kd is 0.2 ± 0.01 µM.
Take dynorphin-A (1–17) (peptide): in assay [2], the half-inhibitory concentration (IC50) stood at 11 µM and the equilibrium dissociation constant (Kd) stood at 3.3 µM.
In assay [2], leu-enkephalin (peptide) displayed a half-inhibitory concentration (IC50) of 2000 µM.
YGGFLRRIR [dynorphin-A (1–9)] yielded a Kd in assay [1] of 13.3 ± 0.7 µM.
The same measure, in the same setting: next, `CC[C@H](C)[C@H](NC(=O)[C@H](CCCNC(=N)N)NC(=O)[C@H](CCCNC(=N)N)NC(=O)[C@H](CC(C)C)NC(=O)[C@H](Cc1ccccc1)NC(=O)CNC(=O)CNC(=O)[C@@H](N)Cc1ccc(O)cc1)C(=O)N[C@@H](CCCNC(=N)N)C(=O)N1CCC[C@H]1C(=O)N[C@@H](CCCCN)C(=O)N[C@@H](CC(C)C)C(=O)N[C@@H](CCCCN)C(=O)N[C@@H](Cc1c[nH]c2ccccc12)C(=O)N[C@@H](CC(=O)O)C(=O)N[C@@H](CC(N)=O)C(=O)N[C@@H](CCC(N)=O)C(=O)O` [dynorphin-A (1–17)]: 3.3 ± 0.6 µM.
Regarding SFRNGVGSGVKKTSFRRAKQ [neuropeptide S], the “IC50 from competition binding assay” value in assay [1] (pH 6, 30 °C, vs prebound bradykinin-SR101 (1 μM) + OppA (15 μM) mixture, at least 1 h, mean ± SD, n = 3) is recorded as “no fit”.
With “Lactococcus lactis oligopeptide-binding protein A (OppA) (natural protein)”, in assay [3], the Kd was 22.9 µM and 15.4 µM.
In assay [2], dynorphin-A (1–9) (peptide) registered an IC50 of 34.2 µM and a Kd of 13.3 µM.
As to bradykinin (peptide), the IC50 was 5.1 µM and 5.3 µM and 5.6 µM in assay [4]; 5.2 µM in assay [2]. The Kd in assay [4] is < 0.1 µM and 0.31 µM; in assay [2] it was 0.13 µM; in assay [5], 0.2 µM and 0.36 µM and 0.7 µM; in assay [6] it was 0.4 µM.
In turn, neuropeptide S had a dissociation constant Kd in assay [2] of 1800 µM.
